For six proteins, Km, kcat and kcat/Km results are on record in paper PMC6497955, “Development and structural characterization of an engineered multi-copper oxidase reporter of protein–protein interactions” (The Journal of Biological Chemistry, 2019).

Positions count from the first letter of the chain named. Numbers in names are those of the source.

Substrate in this series: COc1cc(C=NN=Cc2cc(OC)c(O)c(OC)c2)cc(OC)c1O
The experiment in a line: purified protein. The class given is biochemical, Escherichia coli. The conditions noted are these: 50 mM acetate pH 5.2, 0.33 mM copper, room temperature.

The mark [1] stands for this setting: CueO-HA, HA epitope graft TSYPYDVPDYA (from primers), no antibody.
The mark [2] stands for this setting: CueO-12.1, graft PRFMDYWEGLN (from primers; residues 384–394 replaced).
Setting [3] is: CueO-12.1CON, graft PRAMDYAEGAN (from primers).
Setting [4] is: CueO-PM2, graft TSFAEYWALLS (from primers), no MDM2.

B1: CueO (Escherichia coli K-12; G386S/G389Y/G391V/H387Y/H390D/H395A/M358I/M385T/M388P/M393D/N392P/N394Y) (protein)
chain: AERPTLPIPDLLTTDARNRIQLTIGAGQSTFGGKTATTWGYNGNLLGPAVKLQRGKAVTVDIYNQLTEETTLHWHGLEVPGEVDGGPQGIIPPGGKRSVTLNVDQPAATCWFHPHQHGKTGRQVAMGLAGLVVIEDDEILKLMLPKQWGIDDVPVIVQDKKFSADGQIDYQLDVMTAAVGWFGDTLLTNGAIYPQHAAPRGWLRLRLLNGCNARSLNFATSDNRPLYVIASDGGLLPEPVKVSELPVLMGERFEVLVEVNDNKPFDLVTLPVSQMGMAIAPFDKPHPVMRIQPIAISASGALPDTLSSLPALPSLEGLTVRKLQLSMDPILDMMGMQMLMEKYGDQAMAGMDHSQMTSYPYDVPDYAMNHGGKFDFHHANKINGQAFDMNKPMFAAAKGQYERWVISGVGDMMLHPFHIHGTQFRILSENGKPPAAHRAGWKDTVKVEGNVSEVLVKFNHDAPKEHAYMAHCHLLEHEDTGMMLGFTV
notes: C-terminal His6 tag, pET22b, full-length gene cloned, expressed in E. coli BL21(DE3); crystal models start at residue 29/30; given PDB entries are of the CueO-12.1 and CueO-PM2 variants
For the protein B1, under setting [1], the Km stood at 286.06 ± 22.89 µM, the kcat was 1.49 ± 0.151 s⁻¹ and the kcat/Km was found to be 5170 M⁻¹ s⁻¹.

B2: CueO (Escherichia coli K-12) (protein)
chain: AERPTLPIPDLLTTDARNRIQLTIGAGQSTFGGKTATTWGYNGNLLGPAVKLQRGKAVTVDIYNQLTEETTLHWHGLEVPGEVDGGPQGIIPPGGKRSVTLNVDQPAATCWFHPHQHGKTGRQVAMGLAGLVVIEDDEILKLMLPKQWGIDDVPVIVQDKKFSADGQIDYQLDVMTAAVGWFGDTLLTNGAIYPQHAAPRGWLRLRLLNGCNARSLNFATSDNRPLYVIASDGGLLPEPVKVSELPVLMGERFEVLVEVNDNKPFDLVTLPVSQMGMAIAPFDKPHPVMRIQPIAISASGALPDTLSSLPALPSLEGLTVRKLQLSMDPMLDMMGMQMLMEKYGDQAMAGMDHSQMMGHMGHGNMNHMNHGGKFDFHHANKINGQAFDMNKPMFAAAKGQYERWVISGVGDMMLHPFHIHGTQFRILSENGKPPAAHRAGWKDTVKVEGNVSEVLVKFNHDAPKEHAYMAHCHLLEHEDTGMMLGFTV
notes: as for B1
In the case of B2, where the note is “CueO-WT (358 reverted to Met)”, the Km worked out at 293.18 ± 23.08 µM, the kcat is 2.52 ± 0.136 s⁻¹ and the kcat/Km is 8670 M⁻¹ s⁻¹.

B3: CueO (Escherichia coli K-12; G386R/G389D/G391W/H387F/H390Y/H395N/M358I/M385P/M393G/N392E/N394L) (protein)
chain: AERPTLPIPDLLTTDARNRIQLTIGAGQSTFGGKTATTWGYNGNLLGPAVKLQRGKAVTVDIYNQLTEETTLHWHGLEVPGEVDGGPQGIIPPGGKRSVTLNVDQPAATCWFHPHQHGKTGRQVAMGLAGLVVIEDDEILKLMLPKQWGIDDVPVIVQDKKFSADGQIDYQLDVMTAAVGWFGDTLLTNGAIYPQHAAPRGWLRLRLLNGCNARSLNFATSDNRPLYVIASDGGLLPEPVKVSELPVLMGERFEVLVEVNDNKPFDLVTLPVSQMGMAIAPFDKPHPVMRIQPIAISASGALPDTLSSLPALPSLEGLTVRKLQLSMDPILDMMGMQMLMEKYGDQAMAGMDHSQMPRFMDYWEGLNMNHGGKFDFHHANKINGQAFDMNKPMFAAAKGQYERWVISGVGDMMLHPFHIHGTQFRILSENGKPPAAHRAGWKDTVKVEGNVSEVLVKFNHDAPKEHAYMAHCHLLEHEDTGMMLGFTV
notes: as for B1
For the protein B3, under setting [2], the Km was determined as 290.65 ± 44.33 µM, the kcat was found to be 1.03 ± 0.0613 s⁻¹ and the kcat/Km was 3500 M⁻¹ s⁻¹.

B4: CueO (Escherichia coli K-12; G386R/G389D/G391A/H387A/H390Y/H395N/M358I/M385P/M393G/N392E/N394A) (protein)
chain: B3 chain with F359A, W363A, L366A
notes: as for B1
B4: under setting [3], the Michaelis-Menten constant (Km) amounted to 234.51 ± 41.99 µM, the turnover number (kcat) was found to be 1.61 ± 0.238 s⁻¹ and the kcat/Km was 6830 M⁻¹ s⁻¹.

B5: CueO (Escherichia coli K-12; G386S/G389E/G391W/H387F/H390Y/H395S/M358I/M385T/M388A/M393L/N392A/N394L) (protein)
chain: B3 chain with P357T, R358S, M360A, D361E, E364A, G365L, N367S
notes: as for B1
For the protein B5, under setting [4], the Km is 284.77 ± 25.50 µM, the kcat was 0.811 ± 0.0288 s⁻¹ and the kcat/Km is 2830 M⁻¹ s⁻¹.

B6: CueO (Escherichia coli K-12; M358I) (protein)
chain: B2 chain with M330I
notes: as for B1
B6: the Km turned out to be 256.09 ± 9.59 µM, the kcat was found to be 2.24 ± 0.19 s⁻¹ and the kcat/Km was determined as 8830 M⁻¹ s⁻¹.
